Consider 6 molecules from article PMC4784862, “DNA Sequence Determinants Controlling Affinity, Stability and Shape of DNA Complexes Bound by the Nucleoid Protein Fis”.

Holding throughout (details): protein: recombinant; chain copies: 2; label: 5'-32P
The target of data set [1] is T1, Fis WT (UniProt P0A6R3 1-98). Briefly: EMSA; t1/2 36 min; EMSA: 20 mM Hepes pH 7.5, 0.15 M NaCl, 5% glycerol, 0.5 mg/ml BSA, 1 mM EDTA, 1 mM DTT, 0.1 nM 32P 27 bp probe, 50 ug/ml poly dI/dC; temperature not stated.
The target in data set [2] is T1, Fis WT. The data set is described as follows: EMSA; t1/2 44 min; EMSA: 20 mM Hepes pH 7.5, 0.15 M NaCl, 5% glycerol, 0.5 mg/ml BSA, 1 mM EDTA, 1 mM DTT, 0.1 nM 32P 27 bp probe, 50 ug/ml poly dI/dC; temperature not stated.
In data set [3] the target is T1, Fis WT. Briefly: X-ray crystallography; 3.5 A, partially refined; EMSA: 20 mM Hepes pH 7.5, 0.15 M NaCl, 5% glycerol, 0.5 mg/ml BSA, 1 mM EDTA, 1 mM DTT, 0.1 nM 32P 27 bp probe, 50 ug/ml poly dI/dC; temperature not stated.
For data set [4], the target named is T1, Fis WT. The data set is described as follows: EMSA; t1/2 25 min; EMSA: 20 mM Hepes pH 7.5, 0.15 M NaCl, 5% glycerol, 0.5 mg/ml BSA, 1 mM EDTA, 1 mM DTT, 0.1 nM 32P 27 bp probe, 50 ug/ml poly dI/dC; temperature not stated.
Data set [5] has as its target T1, Fis WT. The data set is described as follows: EMSA; t1/2 30 min; EMSA: 20 mM Hepes pH 7.5, 0.15 M NaCl, 5% glycerol, 0.5 mg/ml BSA, 1 mM EDTA, 1 mM DTT, 0.1 nM 32P 27 bp probe, 50 ug/ml poly dI/dC; temperature not stated.
The target of data set [6] is T1, Fis WT. The data set is described as follows: EMSA; t1/2 38 min; EMSA: 20 mM Hepes pH 7.5, 0.15 M NaCl, 5% glycerol, 0.5 mg/ml BSA, 1 mM EDTA, 1 mM DTT, 0.1 nM 32P 27 bp probe, 50 ug/ml poly dI/dC; temperature not stated.

T1 sequence (P0A6R3 whole entry): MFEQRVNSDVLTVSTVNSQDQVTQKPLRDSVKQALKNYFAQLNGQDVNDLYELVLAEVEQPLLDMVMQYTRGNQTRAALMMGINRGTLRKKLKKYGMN

B1: F1±10A (dsDNA)
DNA 1: AAAATTGTTTGAATTTTGAGCAATTTT
DNA 2: AAAATTGCTCAAAATTCAAACAATTTT
Turning to B1, in the data set with Fis WT [1], the Kd stood at 0.5 ± 0.1 nM.

B2: F1±10C (dsDNA)
DNA 1: AAACTTGTTTGAATTTTGAGCAAGTTT
DNA 2: AAACTTGCTCAAAATTCAAACAAGTTT
Take B2: in the data set with Fis WT [2], the Kd came out at 0.3 ± 0.1 nM.

B3: F36 (dsDNA)
DNA 1: AAATTTGTTTGAATCTCGAGCAAATTT
DNA 2: AAATTTGCTCGAGATTCAAACAAATTT
As for B3, in the data set with Fis WT [3], the binding result was “binds”.

B4: F1±9G (dsDNA)
DNA 1: AAATGTGTTTGAATTTTGAGCACATTT
DNA 2: AAATGTGCTCAAAATTCAAACACATTT
Consider B4, for which the Kd with Fis WT [4] was determined as 0.6 ± 0.2 nM.

B5: F1±9C (dsDNA)
DNA 1: AAATCTGTTTGAATTTTGAGCAGATTT
DNA 2: AAATCTGCTCAAAATTCAAACAGATTT
Take B5: the Kd in the data set with Fis WT [5] was found to be 0.3 ± 0.1 nM.

B6: F1±10G (dsDNA)
DNA 1: AAAGTTGTTTGAATTTTGAGCAACTTT
DNA 2: AAAGTTGCTCAAAATTCAAACAACTTT
Take B6: in the data set with Fis WT [6], the Kd is 0.5 ± 0.1 nM.
